The target in this test is peptide-conjugate (Example 1; lactosyl-Ser-…-Cys coupled to KLH) (influenza virus).

“And” between values parts separate entries of the source, which are not always exact repeats. Identical values can stand only once.

Our source for the EC50 (read off the curve) values is patent US20190352376A1.

B1: F211-11H12 (antibody, V domains shown)
VL: DIVMSQSPSSLAVSVGEKVTMSCKSSQSLLNSRNQKNHLAWYQQKPGQSPKLLIYWASTRESGVPDRFTGDGSGTDFTLTISSVKAEDLAVYYCQQYYTYRTFGGGTKLEIK
VH: DVQLQESGPGLVKPSQSLSLTCSVTGYSITSDYYWNWIRQFPGNKLEWMAYIGYDGTKNYNPSLKNRISITRDTSKNQFFLKLNSVTTDDTATYYCTRDRANWDDYFDYWGQGTTLTVSS
Broadly, the EC50 (read off the curve) is the concentration giving half of the maximal effect. High values mean lower potency in that assay, low ones higher potency in that assay. Turning to B1, the EC50 (read off the curve) is 0.03 µg/mL and 0.02 µg/mL.
